Experimental findings from PMC12151214 are described below.

To fix the notation:
B1: GFP-HMGA1 (WT) [human] / mCherry-LacI-CHFR [human] (parent)
chain 1: MSESSSKSSQPLASKQEKDGTEKRGRGRPRKQPPVSPGTALVGSQKEPSEVPTPKRPRGRPKGSKNKGAAKTRKTTTTPGRKPRGRPKKLEKEEEEGISQESSEEEQ
chain 2: MERPEEGKQSPPPQPWGRLLRLGAEEGEPHVLLRKREWTIGRRRGCDLSFPSNKLVSGDHCRIVVDEKSGQVTLEDTSTSGTVINKLKVVKKQTCPLQTGDVIYLVYRKNEPEHNVAYLYESLSEKQGMTQESFEANKENVFHGTKDTSGAGAGRGADPRVPPSSPATQVCFEEPQPSTSTSDLFPTASASSTEPSPAGRERSSSCGSGGGGISPKGSGPSVASDEVSSFASALPDRKTASFSSLEPQDQEDLEPVKKKMRGDGDLDLNGQLLVAQPRRNAQTVHEDVRAAAGKPDKMEETLTCIICQDLLHDCVSLQPCMHTFCAACYSGWMERSSLCPTCRCPVERICKNHILNNLVEAYLIQHPDKSRSEEDVQSMDARNKITQDMLQPKVRRSFSDEEGSSEDLLELSDVDSESSDISQPYVVCRQCPEYRRQAAQPPHCPAPEGEPGAPQALGDAPSTSVSLTTAVQDYVCPLQGSHALCTCCFQPMPDRRAEREQDPRVAPQQCAVCLQPFCHLYWGCTRTGCYGCLAPFCELNLGDKCLDGVLNNNSYESDILKNYLATRGLTWKNMLTESLVALQRGVFLLSDYRVTGDTVLCYCCGLRSFRELTYQYRQNIPASELPVAVTSRPDCYWGRNCRTQVKAHHAMKFNHICEQTRFKN

The variants in the assay derive from B1. As to the kind of experiment: LacI-LacO fluorescence colocalization assay (GFP-HMGA1 foci intensity at LacO array, ImageJ). The note with it: with mCherry-LacI-CHFR [human]; U2OS-265 cells cotransfected for 24 h; parent: 1.5; read off a plot.
For the variant chain 1 E50Q, the response turned out to be 1.
